# From patent publication US20240261221A1, “POLYOL-MODIFIED LIPID COMPOUND AND PREPARATION METHOD AND APPLICATION THEREOF” (JENKEM TECHNOLOGY CO., LTD. (TIANJIN), priority 2021, published 2024)
# B1: Positive control group: 0.15 mg/mL ovalbumin solution, available from Sigma, USA (protein, UniProt P01012 2-386, looked up)
# Ovalbumin: GSIGAASMEFCFDVFKELKVHHANENIFYCPIAIMSALAMVYLGAKDSTRTQINKVVRFDKLPGFGDSIEAQCGTSVNVHSSLRDILNQITKPNDVYSFSLASRLYAEERYPILPEYLQCVKELYRGGLEPINFQTAADQARELINSWVESQTNGIIRNVLQPSSVDSQTAMVLVNAIVFKGLWEKAFKDEDTQAMPFRVTEQESKPVQMMYQIGLFRVASMASEKMKILELPFASGTMSMLVLLPDEVSGLEQLESIINFEKLTEWTSSNVMEERKIKVYLPRMKMEEKYNLTSVLMAMGITDVFSSSANLSGISSAESLKISQAVHAAHAEINEAGREVVGSAEAGVDAASVSEEFRADHPFLFCIKHIATNAVLFFGRCVSP
# Assays:
# [1] = tested on: KDR mRNA; test: Gene inhibitory effect of siRNA-PEG-lipid particle composition after cell delivery in A375 cells; assay type: cell-based; conditions: particles prepared from PEG-lipids and anti-KDR siRNA, 24 h and 48 h after transfection
# Experimental: (1) ARPE-19 cells were cultured in a DMEM/F12+12% FBS+double antibody medium (containing 100 U/mL Penicillin, 100 μg/mL Streptomycin) and placed in an incubator at 37° C. with 5% CO2 and saturated humidity. 24 h before the experiment, the cells were seeded onto a 12-well plate at 1.2×10^5 cell/well and cultured overnight. (2) 50 μL of diluted anti-KDR siRNA:compound 1 (1:10), anti-KDR siRNA:compound 2 (1:10), and anti-KDR siRNA:compound 3 (1:10) (in molar ratios: the siRNA concentration was 20 μM) from […] with an OPTI-MEM culture medium were separately mixed with 50 μL of a diluted Lipofectamine 3000™ transfection reagent from 3 μL with an OPTI-MEM culture medium for positive control, followed by gently shaking, and the mixed solutions were left to stand for 15 min. In addition, a blank group, an NC group, and an NC-RL group were set.
# Anti-KDR siRNA is an siRNA that inhibits VEGFR2 mRNA expression, and the preparation method therefor is described in patent document CN202010229195.2: the sequence is as follows: • Sense strand: 5′-GGAGUGAGAUGAAGAAAUU-3′; • Antisense strand: 5′-AAUUUCUUCAUCUCACUCC-3′. (3) The medium was refreshed for the cells in each well in the cell plate, an antibiotic-free culture medium was added at 900 μL/well, and then 100 μL of the mixed solution was added into each well, finally the total volume of each well being 1000 μL. The siRNA (or siRNA NC, or siR-NC RL) transfection concentration was 50 nM. (4) 24 h and 48 h after transfection, the 12-well plate was taken out from the incubator at 37° C. with 5% CO2, and the cells were harvested for RNA extraction for subsequent detection.
# The relative expression level of KDR mRNA was calculated by AACt with GAPDH as an endogenous reference gene: mRNA expression levels were normalized for each group with the expression level for the blank group as 100%.
# The foregoing procedure was similar to that of Example 4 except that the culture medium for the A375 cells was a DMEM culture medium containing 10% FBS (containing 100 U/mL Penicillin, 100 μg/mL of Streptomycin).
# [2] = tested on: IgE; test: Plasma IgE level after challenge administration in guinea pigs; assay type: in vivo; conditions: guinea pig plasma, 40 min after challenge
# Experimental: 48 healthy guinea pigs which were fed with food normally for 5 days were randomly divided into 6 groups, with 8 guinea pigs for each group. Group A: negative control group (0.9% sodium chloride injection): group B: positive control group (0.15 mg/mL ovalbumin solution. available from Sigma. USA, lot No. DHO15-4): group C: M-PEG47-DTDPAM (i.e., compound 1. prepared in Example 1); group D: M-PEG47-DTDPA (i.e., compound 2. prepared in Example 2): group E: M-DTDPAM-2000 (available from Tianjin JenKem Technology Co., Ltd., lot No. ZZ409P002); group F: M-DTDPA-2000 (available from Tianjin JenKem Technology Co., Ltd., lot No. ZZ409P004).
# (§1) Sensitization was carried out by intraperitoneal injection, and the administration was carried out once every other day at a volume of 1 mL/guinea pig for 4 times in total. On the second day after the last sensitization, each group of guinea pigs was challenged by applying a corresponding liquid medicine to the toes thereof via intravenous injection at a dose of 2 mL/guinea pig. The animal state was observed daily during sensitization, the reaction of guinea pigs was continuously observed for 40 min at 15 min before and after challenging via intravenous injection, and the time of onset and disappearance of symptoms was recorded. Blood was collected 40 min after challenging and drug withdrawal, anticoagulated with heparin, and made into blood plasma.
# [3] = tested on: guinea pigs; test: Allergy study of PEG-lipids in guinea pigs: systemic sensitization symptom grading; assay type: in vivo, guinea pig
# Experimental: (§2) 48 healthy guinea pigs which were fed with food normally for 5 days were randomly divided into 6 groups, with 8 guinea pigs for each group.
# as §1, with “The animal state was observed daily during sensitization, the reaction of guinea pigs was continuously observed for 40 min at 15 min before and after challenging via intravenous injection, and the time of onset and disappearance of symptoms was recorded.” left out
# During sensitization and at the time of challenge administration, animals were observed and recorded for the onset and duration of symptoms, such as nasal scratching, sneezing, restlessness, jumping, panting, and purpura, and the score and grade of symptoms were determined according to the criteria for grading symptoms of systemic sensitization (Table 3).
# [4] = tested on: histamine; test: Plasma histamine level after challenge administration in guinea pigs; assay type: in vivo, guinea pig
# Experimental: as §2
# as §1, with “The animal state was observed daily during sensitization, the reaction of guinea pigs was continuously observed for 40 min at 15 min before and after challenging via intravenous injection, and the time of onset and disappearance of symptoms was recorded.” left out
molecule,measurement,setting,value
CCCCCCCCCCCCCC(=O)OCC(COCCOCCOCCOCCOCCOCCOCCOCCOCCOCCOCCOCCOCCOCCOCCOCCOCCOCCOCCOCCOCCOCCOCCOCCOCCOCCOCCOCCOCCOCCOCCOCCOCCOCCOCCOCCOCCOCCOCCOCCOCCOCCOCCOCCOCCOCCOC)OC(=O)CCCCCCCCCCCCC (centres unmarked) [compound 3],inhibitory effect on KDR mRNA (relative expression level of KDR mRNA),[1],significant and continuous inhibitory effect
CCCCCCCCCCCCCCN(CCCCCCCCCCCCCC)C(=O)CCOCCOCCOCCOCCOCCOCCOCCOCCOCCOCCOCCOCCOCCOCCOCCOCCOCCOCCOCCOCCOCCOCCOCCOCCOCCOCCOCCOCCOCCOCCOCCOCCOCCOCCOCCOCCOCCOCCOCCOCCOCCOCCOCCOCCOCCOCCOCCOC [compound 1],inhibitory effect on KDR mRNA (relative expression level of KDR mRNA),[1],significant and continuous inhibitory effect
CCCCCCCCCCCCCCN(CCCCCCCCCCCCCC)CCCOCCOCCOCCOCCOCCOCCOCCOCCOCCOCCOCCOCCOCCOCCOCCOCCOCCOCCOCCOCCOCCOCCOCCOCCOCCOCCOCCOCCOCCOCCOCCOCCOCCOCCOCCOCCOCCOCCOCCOCCOCCOCCOCCOCCOCCOCCOCCOC [compound 2],inhibitory effect on KDR mRNA (relative expression level of KDR mRNA),[1],significant and continuous inhibitory effect
B1,IgE level,[2],286.33 ± 34.67 ng/mL
same,Allergic symptoms (grade),"[3]; after challenge administration, grade per Table 3",extremely positive
same,Mean score,"[3]; i.p. sensitization 4 times, i.v. challenge, scoring per Table 3",2.8
same,plasma histamine level compared with group A,[4]; guinea pig plasma after challenge,significantly different from that of group A
same,Histamine level,"[4]; guinea pig plasma, 40 min after challenge",12.21 ± 4.25 ng/mL
